Data from paper PMC11444770, “Moesin contributes to heat shock gene response through direct binding to the Med15 subunit of the Mediator complex in the nucleus” (Open Biology, 2024).

T1: GST-Med15 (Drosophila melanogaster, UniProt Q9Y149 1-749)
T1 construct: Med15, Drosophila Mediator subunit; CDS amplified with the primers Med15 pGex6P-1 Fw/Rev (start to stop codon) and cloned into pGex6P-1; source: E. coli SixPack, purified on Glutathione Sepharose 4B, kept on the beads; not shown: GST, N-terminal, kept
T1 sequence (looked up): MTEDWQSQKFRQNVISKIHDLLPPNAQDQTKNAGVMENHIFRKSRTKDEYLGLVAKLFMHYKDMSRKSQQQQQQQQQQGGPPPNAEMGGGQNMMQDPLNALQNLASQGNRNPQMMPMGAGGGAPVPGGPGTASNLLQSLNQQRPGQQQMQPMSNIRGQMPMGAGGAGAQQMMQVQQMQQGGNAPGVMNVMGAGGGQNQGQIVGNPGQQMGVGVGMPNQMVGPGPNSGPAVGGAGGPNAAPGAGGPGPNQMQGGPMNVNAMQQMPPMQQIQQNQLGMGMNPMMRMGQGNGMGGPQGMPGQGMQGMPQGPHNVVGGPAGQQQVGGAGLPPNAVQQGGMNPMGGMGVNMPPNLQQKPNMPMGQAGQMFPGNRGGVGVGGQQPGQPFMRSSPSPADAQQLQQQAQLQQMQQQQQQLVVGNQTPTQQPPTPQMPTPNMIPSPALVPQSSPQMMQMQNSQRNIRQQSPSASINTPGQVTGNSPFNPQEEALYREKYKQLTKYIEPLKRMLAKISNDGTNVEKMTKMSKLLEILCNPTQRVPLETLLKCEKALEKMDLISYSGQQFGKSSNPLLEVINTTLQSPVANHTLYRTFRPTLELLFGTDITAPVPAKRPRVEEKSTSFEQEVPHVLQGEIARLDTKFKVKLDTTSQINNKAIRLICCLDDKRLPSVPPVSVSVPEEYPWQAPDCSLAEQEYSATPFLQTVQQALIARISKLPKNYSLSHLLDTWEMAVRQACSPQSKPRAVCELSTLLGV

B1: 6xHis-Hsf (natural protein, Drosophila melanogaster, UniProt P22813 1-691, looked up)
chain: MSRSRSSAKAVQFKHESEEEEEDEEEQLPSRRMHSYGDAAAIGSGVPAFLAKLWRLVDDADTNRLICWTKDGQSFVIQNQAQFAKELLPLNYKHNNMASFIRQLNMYGFHKITSIDNGGLRFDRDEIEFSHPFFKRNSPFLLDQIKRKISNNKNGDDKGVLKPEAMSKILTDVKVMRGRQDNLDSRFSAMKQENEVLWREIASLRQKHAKQQQIVNKLIQFLITIVQPSRNMSGVKRHVQLMINNTPEIDRARTTSETESESGGGPVIHELREELLDEVMNPSPAGYTAASHYDQESVSPPAVERPRSNMSISSHNVDYSNQSVEDLLLQGNGTAGGNILVGGAASPMAQSVSQSPAQHDVYTVTEAPDSHVQEVPNSPPYYEEQNVLTTPMVREQEQQKRQQLKENNKLRRQAGDVILDAGDILVDSSSPKAQRTSIQHSTQPDVMVQPMIIKSEPENSSGLMDLMTPANDLYSVNFISEDMPTDIFEDALLPDGVEEAAKLDQQQKFGQSTVSSGKFASNFDVPTNSTLLDANQASTSKAAAKAQASEEEGMAVAKYSGAENGNNRDTNNSQLLRMASVDELHGHLESMQDELETLKDLLRGDGVAIDQNMLMGLFNDSDLMDNYGLSFPNDSISSEKKAPSGSELISYQPMYDLSDILDTDDGNNDQEASRRQMQTQSSVLNTPRHEL
notes: heat shock factor (Hsf), the Drosophila Hsf1 homologue; The methods say C-terminal 6xHis tagging in pDEST17, while the label 6xHis-Hsf puts the tag first; as far as I recall pDEST17 adds an N-terminal His tag; also called heat shock factor; source: E. coli, purified (HisPur Cobalt Resin or Ni-NTA beads); not shown: 6xHis, C-terminal, kept
B2: GST-Med17 (natural protein, Drosophila melanogaster, UniProt Q9VEC1 1-642, looked up)
chain: MSNSVNISVETTCENQIREIGYDGTELYQPPPTLSESLAKCAARIDFSKTSLDDLKKEEKSAAAAADEDKDATQFQESLWPWDAVRNKLKDALTEICVLSDVISIAKDKRYLVLDPLLEEADDTKPIVQVYSRKKAISQAAQVLLSGAERLRNAHSEQRNRNVSDFHIELLRLRQNWRLKKVSNAIIGDLSYRTAGSKFGMSGTFEVTKAEETGDEDTASSSNSSSSVSGNNGMQLKASSALRVIVPAELQGVAYIKVITQKDQEDLCTAQLNLMGHGPNITAQVGVWQKTLEFAQNVLFCKELFAQLAREAIQLQAPIPHVVIGNQIRATLLPNIQLIISLCHSTTFDSSQPAPINDHDHVLEHSLHQLLREVHYKNSHHPFPHPASAPLGPTKKRMLAGPMAADRETLLDMTKSQTILEQIIAQAQHIFMRKRTQYVLDTLARDVKDPQIVSHWNAMNSPTMSCVKINIVTHGYDAIGRTSLVIHVKERSLKCICRDGRVMRLSYEPQELRDLILCQINSHQISCLISLARCMSWTVLSNSNHLGIGKVEPLGNASSCLLASPNSDRMIAVQIRCDPQIDVKVYIARSPRQDFFPSPLVPEKLWENLGGTFKEVRFDKIEGKSFLNKMEFLMASLTSNTA
notes: Med17, Drosophila Mediator subunit; CDS amplified with the primers Med17 pGex6P-1 Fw/Rev (start to stop codon) and cloned into pGex6P-1; source: E. coli SixPack, purified on Glutathione Sepharose 4B, kept on the beads; not shown: GST, N-terminal, kept

Experiments:
Assay in all cases: pull-down; GST-6xHis pull-down: GST-tagged baits immobilised on glutathione beads, purified 6xHis-tagged preys; 50 mM Hepes pH 7.5, 150 mM NaCl, 2 mM MgCl2, 1 mM EGTA, 1 mM DTT, 0.1% Triton X-100, 0.5 mg/ml BSA; 1.5 h at 4°C; western blot
Conditions in all cases: both partners purified
GST-Med15 = target: T1, GST-Med15
6xHis-Hsf = target: B1
GST-Med17 = target: B2

binding result (GST-Med15)	binding result (6xHis-Hsf)	binding result (GST-Med17)	Binder
binds	–	–	B1
–	binds	–	B2
binds	–	binds	6xHis-FERM-Moe (domain or fragment, Drosophila melanogaster, UniProt P46150 1-484, looked up, Drosophila Moesin, amino acids 1-484 (FERM-Moe); The methods say C-terminal 6xHis tagging in pDEST17, while the label 6xHis-FERM-Moe puts the tag first; as far as I recall pDEST17 adds an N-terminal His tag; also called 6xHis-tagged FERM-Moesin; source: E. coli, purified (HisPur Cobalt Resin or Ni-NTA beads); not shown: 6xHis, C-terminal, kept) MSPKALNVRVTTMDAELEFAIQSTTTGKQLFDQVVKTIGLREVWFFGLQYTDSKGDSTWIKLYKKVMNQDVKKENPLQFRFRAKFYPEDVAEELIQDITLRLFYLQVKNAILTDEIYCPPETSVLLASYAVQARHGDHNKTTHTAGFLANDRLLPQRVIDQHKMSKDEWEQSIMTWWQEHRSMLREDAMMEYLKIAQDLEMYGVNYFEIRNKKGTDLWLGVDALGLNIYEQDDRLTPKIGFPWSEIRNISFSEKKFIIKPIDKKAPDFMFFAPRVRINKRILALCMGNHELYMRRRKPDTIDVQQMKAQAREEKNAKQQEREKLQLALAARERAEKKQQEYEDRLKQMQEDMERSQRDLLEAQDMIRRLEEQLKQLQAAKDELELRQKELQAMLQRLEEAKNMEAVEKLKLEEEIMAKQMEVQRIQDEVNAKDEETKRLQDEVEDARRKQVIAAEAAAALLAASTTPQHHHVAEDENENEEELT
–	binds	–	GST-FERM-Moesin (domain or fragment, Drosophila melanogaster, UniProt P46150 1-484, looked up, pGex6P-1 vector; also called GST-Moesin; source: E. coli SixPack, purified on Glutathione Sepharose 4B, kept on the beads; not shown: GST, N-terminal, kept) MSPKALNVRVTTMDAELEFAIQSTTTGKQLFDQVVKTIGLREVWFFGLQYTDSKGDSTWIKLYKKVMNQDVKKENPLQFRFRAKFYPEDVAEELIQDITLRLFYLQVKNAILTDEIYCPPETSVLLASYAVQARHGDHNKTTHTAGFLANDRLLPQRVIDQHKMSKDEWEQSIMTWWQEHRSMLREDAMMEYLKIAQDLEMYGVNYFEIRNKKGTDLWLGVDALGLNIYEQDDRLTPKIGFPWSEIRNISFSEKKFIIKPIDKKAPDFMFFAPRVRINKRILALCMGNHELYMRRRKPDTIDVQQMKAQAREEKNAKQQEREKLQLALAARERAEKKQQEYEDRLKQMQEDMERSQRDLLEAQDMIRRLEEQLKQLQAAKDELELRQKELQAMLQRLEEAKNMEAVEKLKLEEEIMAKQMEVQRIQDEVNAKDEETKRLQDEVEDARRKQVIAAEAAAALLAASTTPQHHHVAEDENENEEELT
